Assay: label from the status in PepcDB records
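Further: failed if final PepcDB status was selected cloned or expressed and not failed if soluble or beyond.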

MIDNIIRKKWMLKHVRVIVPLLVLLFSLLLTVFVVYTAYSLQLRHNRTLLENLADRQTMALQQFVDGDIHFIGSAANFFRSSTSDDWVRFHTFAEETLKGSQSLIALQWLVKVEPPQAETFTARMQQRFPEFTLYTVPKTGEIKYGFGTDDQAKYVLSDIYPLNYDNRKLLGFYSERERFKRILADIVVNRRPNVSDKVRLLQDGIDKSIVKDGMLVYHPVFSSEDDRSLLGVMVGVVRLSTYFEKLVQISVMEQDLDMRVIDTGFDSEDSPVLYQSPMWRADDEPKIERKLVLPNRDWVLEFELHQPINHSEEWVLLGLGLGGVIISLLLSYIMRMQLEEKQRLTDMIEERTAELRYLVEHDSLTNIYNRRFFSQHLCKMLDEKQSFTLISFDIDRFKQINDSYGHLAGDYALTHVVDVVKKELVESDIFARFGGDEFAILSSVTDETALYTYLERIRKVVEAEPVMLNAETPLTLTISIGASINCEYSEPEILQSVDDQLYLSKSKGRNRVSIAHNAAR
protein production: failed

MIDTMQYGKNDSLRDEIKAYWSGRAATFDLSPGHEIFSEDERAAWHALILKHLGRGEGRKALDLASGTGVISHLMDDLGFQVTGMDWSETMLGLAREKAKSRGRNIRFFVGDAENTMEPDESADVIITRHLVWTLVDPQASFAEWFRVLKPGGKLLIVDGDFVNTGWRERLVKKLAVSLESIGLVKADQPHKPADPENTFNSILSRVYFSKGARAGDVATMLGATGFEPVSVDQELRAIHRAQAKNFSLLKGILRGLQHRYAVCAVKPDTSVKG
protein production: failed

MIDWPLAELLPHAGDMILIDQVLAFDEEQIRTRLEVRPGGLFNRPDGSLPAWVGVELMAQSVAAYAGCRARQQGLPVELGFLLGTRKFECNVEHFPLGSTLEIHALRSLEDDNGMGVFECHLSGPGITASARLNVFRPLEHHHHHH
protein production: failed

MIEAIAIAIAVLGAVLLLILFARIRAVDAELKLKKHRAKDAGLADLLNYAAVVDDGVIVGKNGSFMAAWLYKGDDNASSTEEQREMVSFRINQALAGLGNGWMVHVDAVRRPAPNYSERGVSSFPDSVSFAIDEERRRLFEGLGAMFEGYFVLTVTWFPPVLAQRKFVELMFDDDAVAPDHTARTTGLIAQFKREITSLESRLSSAVKMTRLRGQKVVSEEGREVTHDDFLSWLQFCVTGLHHPVMLPSNPMYLDAVIGGQELWGGVVPKIGRKFIQVVAIEGFPLESTPGVLSALAELPSEYRWSSRFIFMDQHESLKHLDKFRKKWKQKIRGFFDQVFNTNTGSINQDAAAMVGDAEAAIAEVNSGLVAAGYYTSVVVLMDEDRERLAASALLVEKAVNRLAFAARIETINTLDAYLGSLPGHGVENVRRPLINTMNLADLLPTSSIWTGSATAPCPMYPPLSPALMHCVTVGATPFRLNLHVRDLGHTFMFGPTGAGKSTHLGIIAAQLRRYAGMSIYAFDKGMSMYPLAAGIRAATKGKSGLHFTVAADDDRLAFCPLQFLETKGDRAWAMEWIDTILALNGVNTTPAQRNEIGNAIMSMHASGARTLSEFSVTIQDEAIREAIKQYTVDGSMGHLLDAEEDGLSLSDFTVFEIEELMNLGEKFALPVLLYLFRRIERALKGQPSVIILDEAWLMLGHPAFRAKIREWLKVLRKANCLVLMATQSLSDAANSGILDVIVESTATKIFLPNVYARDEDTSALYRRMGLNARQIEILATAIPKRQYYYVSENGRRLYDLALGPMALAFVGASDKESVATIKSLEAKFGHEWVHEWLAGRGLNLNDYLEAA
protein production: failed

MIEENLVEFIEILMLATAVAVTVKFIRLPYTIALVLAGLFVGLAGLLPEVPLSREIVFFIFLPPLLFEAAMNMDLKELRENFGPIALIAFLGVVVTTTVVGFSLNWILGIPLALALIFGAMVSATDPVSVLATFKSISAPKKLSILIEGESVLNDGAAIVVFAIALEMMLKGVFDPLNAALDFAVVCVGGAAVGLAVGYLAYRILAKIDDALVEIAVTIVAAYLGFVLAERFHFSGVIAVVAAGLILGNYGRDFSMSPTTRVIMLDFWSVIVFLVNSIIFILIGVNTHITIFSAWKEILVAIAAVILARAFVVYPVMTYYRFPNLWKHVVFWGGLRGVIPVALALSFGNQLLSAMAFGVVLFSLLLQGISLEIFVKRKFVSESERELEEIIARYIAARSAKFELMKAVEQGRIVEPVAREMLPNLDAEIEELRSKLEEKIRGGMGSKLRKAAVKYVIDAKKSAVVDAMAGGLVSQEVALEIMRELDSKTAELME
protein production: failed

MIEENYKEERYTERVNQGGVWGSFKRKFLSWADDDAGYDEEKDYENLLNNEKLQKKLREWRRTKNQQNNNKTFNTNDTNSFETIQSVIAEQLNVDAVQVTPEAEFVKDLGADSDVVELIMALEEKFGIEIPDEQAEKIVNVGDVMRYIEKQLI
protein production: failed

MIEFTALDDLSLLRESVSLECKLAQGRDGKGALPDDFWPTYSAMANTDGGIVILGVRERKGQFEVAGIENPDKLRTELFNHLNNRQKVSVNLLRDEDVRAWPVEGKTLLVVEIPRARRQQRPVYLRGNPLGGHTYRRLHEGDRPLPDEDVKRMLAEQVEDSRDERILPGYGLDDLHLESLRAYRQLFANRDPSHPWNALADQAFLRQIGGWRQHRETGEAGLTLAGLLMFGQWSSITEAVPLCFLDYQERPADYATTVQWLDRIVPDGTWSGNVFDFYRRVVGKLTADIKVPFVLKGDIRQDDTPTHKALREALVNTLVHADYTGRISVLVVKEPAGFVLRNPGGLRVPAQQALQGGMSDCRNRTMQQMFLMIGLGERAGSGMSRIVHGWRDLGHELHLRESYEPHEHSVLEMFWAKGRGATLASESSEESSEESSEETGKKILHLLREEPSLTASALARRLQLTPRAIEKQLEHHHHHH
protein production: not failed

MIEGHGDDSYKYRHPIRSNFSSNVYNKVNLDGLRAHLCGRISAISAYPEPEPYTLEARLADRHALPAASVCVTNGATEAIYLIAQTFRGTNTAILMPTFSEYADACRMHGHKVTSLYTLDAVPEDVRMVWLCNPNNPTGEVRDKKYLTELIAKHPRVCFVIDQSYEYFTLKELFTAQEAAGFPNVILLHSMTKRYAIPGLRLGYVTAHPGLIGRLRTNRMPWSVNQLAIEAGLYLLSEGIPAGLSMKDYLAECARLKSSLEAIGGLEVWPTDTHFMLVCLRFGKAAALKEYLAREEGILIRDASNFEGLDERFFRIATQTPEENDELVGAIAKWMAE
protein production: failed

MIELLFPGWLAGILLAIAAGPLGSFVVWRRMSYFGDTLAHASLLGVAFGLLLNINLFSAVIAVTLILALGLVWLERRPYLAVDTLLGIMAHSALSLGLVVVSLMNNVRVDLMAYLFGDLLSVTTEDLWVIGAGVIIVVAVMRWQWRALLSMTISPELAHVDGVKIQRTKLLLMLTTALTIGIAMKFVGALIITSLLIIPAASARRFARTPEQMAIIAVMIGMIAVTGGLAFSAGYNTPAGPSVVLCASLLFIVSLLKPQPA
protein production: failed

MIELLISILTYALISLQSFYRKMDRPAASTIGAALMLAFGVMSLKEAVRAIDYNTIMLLFGMMVLTAYLGIAGFFDWLASKIMGFSGNGKRLLFTIVFSSGFLSALFVNDTICVFMTPVVVRVALSAGISPIPLLIALATSANVGSAVTIIGNPQNMLIGLKSGIGFVQFTAKMLPVGVAGIFIVYSVIYVLYRGELGKLRNGKIEVNLNRRLAAKGLLTFALVLILFVTEFYPVSLSAFIGAAIMFAIGGVKPREALEKVDWGLLLLFCNLFIVMHGFEKSYGEKILSMLSFGESFADYLYFSLLTVAGSNLVSNVPFVMMVLPAAKGAAADFWLILAMASTFAGNLTLIGSVANLIVAESAERHGVHLSFFEYLKAGVPVTFATVLVGALLIYIT
protein production: failed

MIERGRLGAASRRRATSAHGPIQTTVFMSSGIVFHAVAALAYAVLAGSLWRRLQGRGSVDQASKLTRTGLLGALALHGVALQQAMLGTQHLYIGWALALSAAVWLGLVVFWLESLLIRIDGLQLLLLPAAAIVTAIAALFPQAQLVPHANNPWLRAHLLIALAAYGLITIAALHAMLIALLDRHLHRPLDAPAERSIVGRVLDAQPPLLVQERLLFRVIWIGFVVLTLAVGSGSVASITLTGKFLPFDHKTIFTLLSWATFGVLLLGRHIRGWRGRVALRWTLTGFAFLILAYTGSRFVLEVILHRG
protein production: failed

MIERLRGALASASFPVMALLLLSAIVVYPLWTMLFLGAVFAYIVRPVALRINRRIPYLSVSIILAMIVVIMPLVGILVFTVDSIINSAPSLLSLAGSIHVPGAGNLQPSAENTLANLRTVLRDILSGSLNYVVAILQSVPMISLQLFVFLSSTFYFARDGKRLVGYIRTLIPEETRPFMERMASETERVLLSIFYGHFLTALAIGLMAAVGFHLLGYPYAILLGIMTGLFQLIPVIGPWAAYTPLSIYDFVTGNILRGVLVLIFGLFLSTIDIYLRPKLSGKYADIHPMIFLVGFLGGPVVWGVAGFIVGPLVLGLAYAALEAYRMESGGEEVQ
protein production: failed

— a protein production outcome set (Wang et al. 2014)
